Article PMC12060307

Key:
[1] = biological target: Japanese soil-borne wheat mosaic virus movement protein (MP^JSBWMV), as fusions MP^JSBWMV:RFP and MP^JSBWMV:GFP (Japanese soil-borne wheat mosaic virus); experiment: FRET or BRET; FRET-FLIM (two-photon, time-correlated single-photon counting) in agro-inoculated N. benthamiana epidermal cells, at plasmodesmata; donor MP:GFP, acceptor RFP fusion; FRET efficiency above 5% considered as interaction
[2] = tested on: MPJSBWMV:GFP (movement protein, GFP fusion, in leaf extract) (Japanese soil-borne wheat mosaic virus); experiment: MST; details: MST in leaf extract: extraction in 2x MST buffer (100 mM Tris-HCl pH 7.5, 300 mM NaCl, 10 mM MgCl2, 0.1% Tween-20, 0.1 mg/mL BSA, 10 mM DTT, protease …)

Substance | % FRET [1] | fluorescence lifetime of the donor MP:GFP [1] | Kd [2]
Japanese soil-borne wheat mosaic virus movement protein (MP^JSBWMV), as fusions MP^JSBWMV:RFP and MP^JSBWMV:GFP (natural protein) | 19.1% | 2 ns | 
RNA1JSBWMV |  |  | 15.4 nM
tRNA1JSBWMV (tRNA-like structure of RNA1) |  |  | 16.2 nM
RNA2JSBWMV |  |  | 4.5 nM
tRNA2JSBWMV (tRNA-like structure of RNA2) |  |  | 28.3 nM
